From publication PMC9427764

What was measured:
[1] = Azi photo-cross-linking in HEK293T, anti-Flag blot; conditions: glycan lost; control: PD-L1-Azi without NQ mutations
[2] = Azi photo-cross-linking, immunoblot; conditions: glycan lost; control: untreated PD-L1-V76Azi cells

Substance	oligomerisation [1]	oligomerisation [2]
PD-L1: 4NQ	decreases	
PD-L1: 5 µM tunicamycin, 24 h		decreases
